Source: patent US20090214558A1 (Pfizer, published 2009)

T1: MAdCAM (analyte of the BIAcore experiment) (UniProt Q13477 19-317)
T1 construct: The antibodies are called anti-hMAdCAM; also called Mucosal addressin cell adhesion molecule
T1 sequence (looked up): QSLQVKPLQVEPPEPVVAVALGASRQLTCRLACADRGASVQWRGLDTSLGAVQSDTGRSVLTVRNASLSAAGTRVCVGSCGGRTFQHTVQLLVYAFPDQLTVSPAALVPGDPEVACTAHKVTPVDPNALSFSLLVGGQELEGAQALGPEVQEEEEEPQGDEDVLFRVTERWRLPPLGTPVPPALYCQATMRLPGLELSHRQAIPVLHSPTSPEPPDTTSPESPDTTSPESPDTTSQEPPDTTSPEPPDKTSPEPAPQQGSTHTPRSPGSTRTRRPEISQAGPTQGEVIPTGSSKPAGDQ


Columns and labels:
[1] = target: T2, MAdCAM-IgG1 Fc fusion protein; test: MAdCAM-IgG1 Fc fusion: JY cell binding assay (inhibition of JY cell adhesion)
T2 construct: Made in CHO-DHFR cells and coated on plates at 4.5 µg/mL

[2] = target: T1, MAdCAM (analyte of the BIAcore …); test: BIAcore (SPR); antibody immobilised, MAdCAM injected
[3] = target: T2, MAdCAM-IgG1 Fc fusion protein; test: inhibition of adhesion of calcein-loaded JY cells to plate-coated MAdCAM-IgG1 Fc fusion (fluorescence)
Experimental: The cells were washed twice with RPMI 1640 media (Gibco) containing 2 mM L-glutamine (Gibco) by centrifugation (240 g), resuspending the final cell pellet at 2×10⁶ cells/mL in RPMI 1640 for Calcein AM loading. Calcein AM (Molecular Probes #C-3099) was added to the cells as a 1:200 dilution in DMSO (ca. final concentration 5 μM) and the cells protected from light during the course of the incubation (37° C. for 30 min). During this cell incubation step the antibodies to be tested, were diluted as follows: for single dose testing, the antibodies were made up to 3 μg/mL (1 μg/mL final) in 0.1 mg/mL BSA (Sigma#A3059) in PBS; for full IC₅₀ curves, the antibodies were diluted in 0.1 mg/mL BSA/PBS, with 3 μg/mL (1 μg/mL final) being the top concentration, then doubling dilutions (1:2 ratio) across the plate. The final well of the row was used for determining total binding, so 0.1 mg/ml BSA in PBS was used.
After blocking, the plate contents were flicked out and 50 μL of antibodies/controls were added to each well and the plate incubated at 37° C. for 20 min. During this time, Calcein-loaded JY cells were washed once with RPMI 1640 media containing 10% fetal bovine serum and once with 1 mg/mL BSA/PBS by centrifugation, resuspending the final cell pellet to 1×10⁶/mL in 1 mg/mL BSA/PBS. 100 μL of cells were added to each well of the U bottomed plate, the plate sealed, briefly centrifuged (1000 rpm for 2 min) and the plate then incubated at 37° C. for 45 min. At the end of this time, the plates were washed with a Skatron plate washer and fluorescence measured using a Wallac Victor² 1420 Multilabel Reader (excitation λ485 nm, emission λ535 nm count from top, 8 mm from bottom of plate, for 0.1 sec with normal emission aperture). For each antibody concentration, percent adhesion was expressed as a percentage of maximal fluorescence response in the absence of any antibody minus fluorescence associated with non-specific binding. The IC₅₀ value is defined as the anti-MAdCAM antibody concentration at which the adhesion response is decreased to 50% of the response in the absence of anti-MAdCAM antibody. Antibodies that were able to inhibit the binding of JY cells to MAdCAM-IgG₁ Fc fusion with an IC₅₀ value <0.1 μg/mL, were considered to have potent antagonist activity and were progressed to the MAdCAM-CHO adhesion assay.
Target sequence in this assay (chain, as listed by the source limits assumed): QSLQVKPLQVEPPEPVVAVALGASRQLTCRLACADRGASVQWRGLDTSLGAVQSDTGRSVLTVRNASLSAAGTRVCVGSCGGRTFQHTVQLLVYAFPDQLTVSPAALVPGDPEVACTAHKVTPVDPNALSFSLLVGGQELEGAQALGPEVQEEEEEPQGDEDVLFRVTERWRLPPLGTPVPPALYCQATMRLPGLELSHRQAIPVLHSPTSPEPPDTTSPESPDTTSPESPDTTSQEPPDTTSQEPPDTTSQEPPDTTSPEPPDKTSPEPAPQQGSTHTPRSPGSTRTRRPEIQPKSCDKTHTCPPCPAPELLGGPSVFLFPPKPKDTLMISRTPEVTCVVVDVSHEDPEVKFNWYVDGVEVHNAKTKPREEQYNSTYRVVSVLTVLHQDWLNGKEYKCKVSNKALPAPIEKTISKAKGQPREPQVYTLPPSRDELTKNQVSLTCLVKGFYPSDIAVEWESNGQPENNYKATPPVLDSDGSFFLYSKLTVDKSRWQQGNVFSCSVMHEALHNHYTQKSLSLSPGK

[4] = target: T1, MAdCAM (analyte of the BIAcore …); test: BIAcore (SPR); KD restated from the instrument's off-rate limit; the footnote says 7.16.6_V, but the ka used and the asterisk belong to 7.16.6_S; KD bound restated from the BIAcore off-rate limit (5 × 10^-6 s^-1), not the fitted 23.2 pM
[5] = target: T1, MAdCAM (analyte of the BIAcore …); test: BIAcore (SPR); antibody immobilised, MAdCAM injected; footnote: below the instrument's lower limit of 5 × 10^-6 s^-1

Row | IC50 [1] | Kd [2] | koff [2] | kon [2] | IC50 [3] | Binder | further results
1 | 0.072 µg/mL | – | – | – | – | 9.8.2-mod_ΔRGAYH,D (antibody, human IgG4, kappa, V domains shown, Purified recombinant antibody; The heavy-chain constant region as printed is IgG4-like; also called 9.8.2_ΔRGAYH,D) VH: QVQLVESGGGVVQPGRSLRLSCAASGFTFSSYGMHWVRQAPGKGLEWVAVIWYDGSNEYYADSVKGRFTISRDNSKNTLYLQMNSLRAEDTAVYYCAFDYWGQGTLVTVSS VL: DIQMTQSPSSLSASVGDRVTITCQASQDISNYLNWYQQKPGKAPKLLIYDASNLETGVPSRFSGSGSGTDFTFTISSLQPEDIATYSCQHSDNLITFGQGTRLEIKR | –
2 | – | 0.0795 nM | 1.21e-05 s⁻¹ | 152000 M⁻¹ s⁻¹ | 0.0356 µg/mL | 7.16.6_L (antibody, V domains shown, The light chain is the parent 7.16.6 kappa chain, rebuilt as for m1; also called 7.16.6_L variant) VH: QVQLVQSGAEVKKPGASVKVSCKASGYTFTSYGINWVRQAPGQGLEWMGWISVYSGNTNYAQKLQGRVTMTADTSTSTAYMDLRSLRSDDTAVYYCAREGSSSSGDYYYGMDVWGQGTTVTVSS VL: DIVMTQTPLSLSVTPGQPASISCKSSQSLLHTDGTTYLYWYLQKPGQPPQLLIYEVSNRFSGVPDRFSGSGSGTDFTLKISRVEAEDVGIYYCMQNIQLPWTFGQGTKVEIKR | –
3 | – | 0.0232 nM | – | 183000 M⁻¹ s⁻¹ | 0.0342 µg/mL | 7.16.6_S (antibody, human IgG2, kappa, V domains shown, Recombinant, from transiently transfected FreeStyle HEK293 cells; also called 7.16.6-5; 7.16.6_5) VH: QVQLVQSGAEVKKPGASVKVSCKASGYTFTSYGINWVRQAPGQGLEWMGWISVYSGNTNYAQKVQGRVTMTADTSTSTAYMDLRSLRSDDTAVYYCAREGSSSSGDYYYGMDVWGQGTTVTVSS VL: DIVMTQTPLSLSVTPGQPASISCKSSQSLLHTDGTTYLYWYLQKPGQPPQLLIYEVSNRFSGVPDRFSGSGSGTDFTLKISRVEAEDVGIYYCMQSIQLPWTFGQGTKVEIKR | Kd [4]: < 0.0273 nM; koff [5]: 4.27e-06 s⁻¹
4 | – | 0.119 nM | 2.31e-05 s⁻¹ | 194000 M⁻¹ s⁻¹ | 0.0458 µg/mL | 7.16.6_LVS (antibody, human IgG2, kappa, V domains shown, Recombinant, from transiently transfected FreeStyle HEK293 cells) VH: QVQLVQSGAEVKKPGASVKVSCKASGYTFTSYGINWVRQAPGQGLEWMGWISVYSGNTNYAQKLQGRVTMTADTSTSTAYMDLRSLRSDDTAVYYCAREGSSSSGDYYYGMDVWGQGTTVTVSS VL: DIVMTQTPLSLSVTPGQPASISCKSSQSLLHTDGTTYLYWYLQKPGQPPQLLIYEVSNRFSGVPDRFSGSGSGTDFTLKISRVEAEDVGVYYCMQSIQLPWTFGQGTKVEIKR | –
5 | – | 0.0908 nM | 2.18e-05 s⁻¹ | 240000 M⁻¹ s⁻¹ | 0.0582 µg/mL | 7.16.6_VS (antibody, human IgG2, kappa, V domains shown, Recombinant, from transiently transfected FreeStyle HEK293 cells; also called 7.16.6_VS adduct) VH: QVQLVQSGAEVKKPGASVKVSCKASGYTFTSYGINWVRQAPGQGLEWMGWISVYSGNTNYAQKVQGRVTMTADTSTSTAYMDLRSLRSDDTAVYYCAREGSSSSGDYYYGMDVWGQGTTVTVSS VL: DIVMTQTPLSLSVTPGQPASISCKSSQSLLHTDGTTYLYWYLQKPGQPPQLLIYEVSNRFSGVPDRFSGSGSGTDFTLKISRVEAEDVGVYYCMQSIQLPWTFGQGTKVEIKR | –
6 | – | 0.162 nM | 2.49e-05 s⁻¹ | 153000 M⁻¹ s⁻¹ | 0.0412 µg/mL | 7.16.6_V (antibody, human IgG2, kappa, V domains shown, Recombinant, from transiently transfected FreeStyle HEK293 cells; also called 7.16.6_V adduct) VH: QVQLVQSGAEVKKPGASVKVSCKASGYTFTSYGINWVRQAPGQGLEWMGWISVYSGNTNYAQKVQGRVTMTADTSTSTAYMDLRSLRSDDTAVYYCAREGSSSSGDYYYGMDVWGQGTTVTVSS VL: DIVMTQTPLSLSVTPGQPASISCKSSQSLLHTDGTTYLYWYLQKPGQPPQLLIYEVSNRFSGVPDRFSGSGSGTDFTLKISRVEAEDVGVYYCMQNIQLPWTFGQGTKVEIKR | –

More lines, now with the values behind:

Row | Binder | IC50 [1] | Kd [2] | koff [2] | kon [2] | IC50 [3] | further results
7 | 6.34.2 (antibody, V domains shown) VH: QVQLVESGGGVVQPGRSLRLSCAASGFTFSSYGMHWVRQAPGKGLEWVAVISNDGNNKYYADSVKGRFTISRDNSKNTLYLQMNSLSAEDTAVYYCARDSTAITYYYYGMDVWGQGTTVTVSS VL: DIQMTQSPSSLSASVGDRVTITCRASQNISSYLNWFQQKPGKAPKLLIYAASGLKRGVPSRFSGSGSGTDFTLTIRTLQPDDFATYSCHQSYSLPFTFGPGTKVDIKR | 0.013 µg/mL | – | – | – | – | –
8 | 6.34.2-mod_SSQ (antibody, human IgG2, kappa, V domains shown, Purified recombinant antibody) VH: QVQLVESGGGVVQPGRSLRLSCAASGFTFSSYGMHWVRQAPGKGLEWVAVISNDGNNKYYADSVKGRFTISRDNSKNTLYLQMNSLRAEDTAVYYCARDSTAITYYYYGMDVWGQGTTVTVSS VL: DIQMTQSPSSLSASVGDRVTITCRASQSISSYLNWYQQKPGKAPKLLIYAASSLSQGVPSRFSGSGSGTDFTLTISSLQPEDFATYYCHQSYSLPFTFGPGTKVDIKR | 0.086 µg/mL | – | – | – | – | –
9 | 6.77.1-mod_ΔS (antibody, human IgG2, kappa, V domains shown, Purified recombinant antibody; also called 6.77.1-mod_ΔAS) VH: EVQLVESGGGLVKPGGSLRLSCAASGFTFSSYSMNWVRQAPGKGLEWVSSISSSSSYIYYADSVKGRFTISRDNAKNSLYLQMNSLRAEDTAVYYCARDGYSSGWYYYYYGMDVWGQGTTVTVSS VL: DIVMTQTPLSLSVTPGQPASISCKSSQSLLLSDGKTYLNWYLQKPGQPPQLLIYEVSNRFSGVPDRFSGSGSGTDFTLKISRVEAEDVGVYSCMQSIQLMSSFGQGTKLEIKR | 0.0485 µg/mL | – | – | – | – | –
10 | 6.67.1 (antibody, V domains shown) VH: QVQLQESGPGLVKPSETLSLTCTVSGDSISSNYWSWIRQPAGKGLEWIGRIYTSGGTNSNPSLRGRVTILADTSKNQFSLKLSSVTAADTAVYYCARDRITIIRGLIPSFFDYWGQGTLVTVSS VL: not shown | 0.013 µg/mL | – | – | – | – | –
11 | 6.67.1-mod_Y (antibody, V domains shown) VH: QVQLQESGPGLVKPSETLSLTCTVSGDSISSNYWSWIRQPAGKGLEWIGRIYTSGGTNSNPSLRGRVTMSVDTSKNQFSLKLSSVTAADTAVYYCARDRITIIRGLIPSFFDYWGQGTLVTVSS VL: not shown | 0.063 µg/mL | – | – | – | – | –
12 | 6.22.2 (antibody, V domains shown) VH: QVQLVESGGGVVQPGRSLRLSCAASGHTFSSDGMHWVRQAPGKGLEWVAIIWYDGSNKYYADSVKGRFTISRDNSKNTLYLQMNSLRAEDTAVYYCARDPGYYYGMDVWGQGTTVTVSS VL: EIVLTQSPDFQSVTPKEKVTITCRASQRIGSSLHWYQQKPDQSPKLLIKYASQSFSGVPSRFSGSGSGTNFTLTINGLEAEDAATYYCHQSGRLPLTFGGGTKVEIKR | 0.018 µg/mL | – | – | – | – | –
13 | 6.22.2-mod_V (antibody, human IgG2, kappa, V domains shown, Purified recombinant antibody) VH: QVQLVESGGGVVQPGRSLRLSCAASGFTFSSDGMHWVRQAPGKGLEWVAVIWYDGSNKYYADSVKGRFTISRDNSKNTLYLQMNSLRAEDTAVYYCARDPGYYYGMDVWGQGTTVTVSS VL: EIVLTQSPDFQSVTPKEKVTITCRASQRIGSSLHWYQQKPDQSPKLLIKYASQSFSGVPSRFSGSGSGTDFTLTINSLEAEDAATYYCHQSGRLPLTFGGGTKVEIKR | 0.076 µg/mL | – | – | – | – | –
